# The supplement of paper PMC9112550, “Optimization of the antimicrobial peptide Bac7 by deep mutational scanning” (BMC Biology, 2022)
# System: Escherichia coli TOP10
# Assay: shrunken log2 fold change of peptide-encoding DNA abundance (4.5 h post-induction vs induction); higher = less antimicrobial activity (less host growth inhibition)
# Conditions: time post-induction: 4.5 h; library: site-saturation at positions 5, 18, 19, 20
# 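Also: peptides expressed intracellularly from a pBAD plasmid library in pooled LB shake-flask culture, induced with 0.3% L-arabinose, DNA abundance read by NGS, three biological replicates, DESeq2 with apeglm shrinkage.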
row,Sequence,shrunken log2 fold change
1,RRIRDRPPRLPRPRPRPQPEPRP,0.106
2,RRIRTRPPRLPRPRPRPPACPRP,0.313
3,RRIRERPPRLPRPRPRPFKSPRP,-0.0568
4,RRIRDRPPRLPRPRPRPLWFPRP,-0.0862
5,RRIRIRPPRLPRPRPRPMLWPRP,0.0197
6,RRIRMRPPRLPRPRPRPAGTPRP,0.627
7,RRIRFRPPRLPRPRPRPTYMPRP,-0.0541
8,RRIRQRPPRLPRPRPRPSDCPRP,-0.756
9,RRIRSRPPRLPRPRPRPYPTPRP,-0.234
10,RRIRCRPPRLPRPRPRPQNPPRP,-0.144
11,RRIRHRPPRLPRPRPRPAFWPRP,0.741
12,RRIRHRPPRLPRPRPRPKHSPRP,-0.347
13,RRIRDRPPRLPRPRPRPGGHPRP,0.188
14,RRIRVRPPRLPRPRPRPNNGPRP,-0.497
15,RRIRLRPPRLPRPRPRPMNHPRP,-0.409
16,RRIRRRPPRLPRPRPRPFFLPRP,0.0467
17,RRIRIRPPRLPRPRPRPLQMPRP,-0.264
18,RRIRFRPPRLPRPRPRPQGMPRP,-0.0535
19,RRIRYRPPRLPRPRPRPWRYPRP,0.026
20,RRIRPRPPRLPRPRPRPWHLPRP,-0.233
21,RRIRFRPPRLPRPRPRPGGDPRP,0.37
22,RRIRIRPPRLPRPRPRPPCYPRP,-0.154
23,RRIRNRPPRLPRPRPRPFCAPRP,-0.0161
24,RRIRCRPPRLPRPRPRPNFMPRP,-0.448
25,RRIRMRPPRLPRPRPRPRLMPRP,-0.0423

row,Sequence,shrunken log2 fold change
1,RRIRYRPPRLPRPRPRPCCIPRP,-0.129
2,RRIRNRPPRLPRPRPRPQCIPRP,-0.135
3,RRIRDRPPRLPRPRPRPFSKPRP,-0.488
4,RRIRCRPPRLPRPRPRPCEMPRP,-0.151
5,RRIRGRPPRLPRPRPRPAIAPRP,0.91
6,RRIRHRPPRLPRPRPRPVGGPRP,0.417
7,RRIRERPPRLPRPRPRPVYEPRP,-0.445
8,RRIRGRPPRLPRPRPRPKGYPRP,0.214
9,RRIRLRPPRLPRPRPRPTMKPRP,-0.0755
10,RRIRCRPPRLPRPRPRPYMRPRP,-0.142
11,RRIRDRPPRLPRPRPRPGNFPRP,-0.0885
12,RRIRDRPPRLPRPRPRPEWVPRP,-0.0272
13,RRIRLRPPRLPRPRPRPDHNPRP,-0.00288
14,RRIRMRPPRLPRPRPRPFKLPRP,0.102
15,RRIRARPPRLPRPRPRPRNRPRP,0.0657
16,RRIRLRPPRLPRPRPRPCMIPRP,-0.21
17,RRIRIRPPRLPRPRPRPATGPRP,-0.119
18,RRIRTRPPRLPRPRPRPTAQPRP,0.247
19,RRIRPRPPRLPRPRPRPLVSPRP,0.00371
20,RRIRDRPPRLPRPRPRPTTAPRP,1.3
21,RRIRQRPPRLPRPRPRPCCEPRP,-0.256
22,RRIRDRPPRLPRPRPRPCQEPRP,0.211
23,RRIRNRPPRLPRPRPRPWVNPRP,-0.00663
24,RRIRNRPPRLPRPRPRPKSEPRP,-0.414
25,RRIRYRPPRLPRPRPRPLVHPRP,0.0162

row,Sequence,shrunken log2 fold change
1,RRIRKRPPRLPRPRPRPTDWPRP,0.169
2,RRIRDRPPRLPRPRPRPFTCPRP,-0.00884
3,RRIRHRPPRLPRPRPRPTIKPRP,-0.304
4,RRIRQRPPRLPRPRPRPRVNPRP,-0.0952
5,RRIRWRPPRLPRPRPRPIVIPRP,-0.353
6,RRIRKRPPRLPRPRPRPGPQPRP,0.561
7,RRIRFRPPRLPRPRPRPGIHPRP,-0.0365
8,RRIRCRPPRLPRPRPRPPLKPRP,0.353
9,RRIRPRPPRLPRPRPRPRLVPRP,0.323
10,RRIRSRPPRLPRPRPRPHCDPRP,-0.38
11,RRIRHRPPRLPRPRPRPMTEPRP,0.0178
12,RRIRCRPPRLPRPRPRPTCMPRP,0.173
13,RRIRIRPPRLPRPRPRPRHLPRP,-0.458
14,RRIRWRPPRLPRPRPRPREVPRP,0.477
15,RRIRARPPRLPRPRPRPHFWPRP,0.23
16,RRIRYRPPRLPRPRPRPEVRPRP,-0.187
17,RRIRDRPPRLPRPRPRPGDFPRP,-0.017
18,RRIRNRPPRLPRPRPRPCTPPRP,-0.3
19,RRIRIRPPRLPRPRPRPCYPPRP,-0.428
20,RRIRQRPPRLPRPRPRPWSKPRP,0.00202
21,RRIRGRPPRLPRPRPRPQLYPRP,0.415
22,RRIRRRPPRLPRPRPRPMYWPRP,-0.185
23,RRIRHRPPRLPRPRPRPCYVPRP,-1.53
24,RRIRRRPPRLPRPRPRPRWFPRP,0.524
25,RRIRWRPPRLPRPRPRPLRMPRP,0.531
